Test results: patent US20260226147A1 (ATRECA, published 2026)

Experiments:
[1] = target: T1, NANP6 peptide (NANPNANPNANPNANPNANPNANP) (Plasmodium falciparum, N-terminal biotin-aminohexanoic acid tag; unmodified C-terminus); assay: SPR (Carterra LSA, 25 C), antibody immobilised on the chip, peptide as analyte
T1 construct: Synthetic peptide (CPC scientific); also called (NANPx6) peptide; long, major repeat peptide
T1 peptide: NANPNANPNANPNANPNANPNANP

[2] = target: T2, NVDP3NANP2 peptide (NVDPNANPNVDPNANPNVDP) (Plasmodium falciparum, acetylated at N-terminus; amidated at C-terminus); assay: as above
T2 construct: Synthetic peptide; also called long, minor repeat peptide
T2 peptide: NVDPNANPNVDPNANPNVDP

[3] = target: T3, recombinant CSP (Plasmodium falciparum circumsporozoite protein, 3D7) (Plasmodium falciparum, UniProt Q7K740 19-374); assay: SPR (Carterra LSA), IgG captured, CSP analyte
T3 construct: also called CSP (3D7)
T3 sequence (Q7K740 19-374 limits assumed): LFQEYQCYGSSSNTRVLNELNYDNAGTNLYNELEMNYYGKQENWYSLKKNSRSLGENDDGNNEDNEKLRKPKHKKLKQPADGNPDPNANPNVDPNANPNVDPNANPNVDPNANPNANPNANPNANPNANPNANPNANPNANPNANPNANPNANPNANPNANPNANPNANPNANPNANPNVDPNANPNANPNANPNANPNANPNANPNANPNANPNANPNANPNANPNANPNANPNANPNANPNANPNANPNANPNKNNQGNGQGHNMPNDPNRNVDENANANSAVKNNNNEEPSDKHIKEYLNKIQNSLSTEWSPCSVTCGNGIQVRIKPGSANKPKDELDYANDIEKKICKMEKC

B1: AB-007163 (antibody, V domains shown)
VH: QVHLLESGGTVVQPGGSLRLSCEASGFIFSDYGMHWVRQVPGKGLEWVAVIWFDGSQKYYGDSVKGRFTVSRDNSKNTLYLQMNTLRADDTGIYYCATDIRGAYKVTDGGFDQWGHGTLVTVSP
VL: QSVLTQPPSISGAPGQRVTISCTGAGSNIGAGYEVHWYQQLPGTAPKLLMFADNNRPSGVPDRFSGSKSGTSASLAITGLQAEDEADYYCQSYDISLKNFVFGTGTTVTVL
Q: What does the source list for B1?
A: binding result [1]: binds; binding result [2]: binds

B2: AB-001558 (antibody, V domains shown)
VH: QVQLVESGGGVVQPGRSLRLSCAASGFTFSSYGMHWVRQAPGKGLEWVAVIWYDGNNKYYVDSVKGRFTISRDNSKNTLYLQMNSLRAEDTAVYYCARDHDADYVEKWGAFDLWGQGTMVTVSS
VL: EIVMTQSPATLSVSPGERATLSCRASQSVSSNLAWYQQKPGQAPRLLIYGASARATGIPARFSGSGSGTEFTLTISSLQSEDFAVYYCQQYNNGRTFGQGTKVEIT
Q: B2 was tested. Which Kd [3] did it give?
A: 1.05 nM
